Test results from the supplement of paper PMC6755084.

B1: F1*; the commonest letter at each place (parent)
chain: GAGACCGCAACTGAAAAGTTGTTATCACTTGTCGTAAGACACTTTGGATGGGTTGAAGTTCTGCACGTAGAAGCAAAAGGC

Variants of: B1
Assay: fraction ligated after 30 min (ligated reads / total reads); higher = more ligase activity
Conditions: with F1*sub RNA substrate (template-directed ligation), 42 °C
How it was run: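 The ligase ribozyme variants were produced by PCR amplification of oligo-pool templates, T7 transcription and purification on gel. Their ligated and unligated forms were gel-separated, then reverse transcribed with barcoded primers before MiSeq sequencing. Core bases were filtered at a quality of ≥20, and fraction ligated per variant was ligated reads over total reads.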

Row | Variant | fraction ligated
1 | T25A A48T | 0.822
2 | A41C G50C | 0.168
3 | A24C T35C | 0.764
4 | A27T G31A | 0.848
5 | T25A C28T | 0.714
6 | G55A A57G | 0.833
7 | A48T G55C | 0.0233
8 | T45C A56C | 0.747
9 | C28G G34C | 0.768
10 | T35G C42A | 0.846
11 | T29C T32A | 0.804
12 | T23G A37C | 0.819
13 | C33G | 0.831
14 | T23A A39G | 0.819
15 | G31C G47A | 0.489
16 | C28T T45G | 0.0616
17 | G31T G47C | 0.0376
18 | A27T T44G | 0.846
19 | A36G A56G | 0.814
20 | T32G G50C | 0.0952
21 | G31A A36T | 0.827
22 | T35A A57C | 0.82
23 | T35A C40A | 0.811
24 | T30A T49G | 0.754

Row | Variant | fraction ligated
25 | T29C A48G | 0.389
26 | T43G T45G | 0.0141
27 | T53A | 0.834
28 | T25C A36C | 0.771
29 | T25C A36G | 0.816
30 | C42A G55T | 0.814
31 | A24G T45C | 0.0441
32 | C33T C40T | 0.859
33 | T44A G55C | 0.795
34 | T23A C33G | 0.838
35 | T35C G50A | 0.608
36 | C28G C33A | 0.757
37 | T30G T45C | 0.803
38 | C28A G46C | 0.79
39 | T30A T43A | 0.828
40 | T32G G47T | 0.0926
41 | C33G A36G | 0.821
42 | C33G A36C | 0.796
43 | T23A G55A | 0.801
44 | G38A A57G | 0.855
45 | T32A T44G | 0.814
46 | T25G G47C | 0.242
47 | T23G A24C A27G C28A C42G G47A | 0.812
48 | T25A A37T | 0.776

Row | Variant | fraction ligated
49 | A41G A56C | 0.755
50 | A37C A56T | 0.804
51 | T35G A39T | 0.836
52 | C40A C42A | 0.821
53 | G38T A39C | 0.79
54 | T29A T44C | 0.825
55 | T45C A57T | 0.777
56 | A36C G46T | 0.778
57 | A27C T45G | 0.116
58 | G46T A48T | 0.144
59 | A37C C40T | 0.858
60 | G34T A37C | 0.844
61 | G34T A37T | 0.843
62 | T45A T49G | 0.0993
63 | T43A A56G | 0.782
64 | C33T T49C | 0.697
65 | T35C C40A | 0.84
66 | C42T G46A | 0.835
67 | C42T G46C | 0.813
68 | T25C T32A | 0.745
69 | A24T T29A | 0.789
70 | T29G G55T | 0.792
71 | T29A G47C | 0.249
72 | T25A | 0.749

Row | Variant | fraction ligated
73 | G38A A41G | 0.765
74 | G38A A41T | 0.793
75 | T25A T32G | 0.13
76 | A37C G50T | 0.787
77 | C42A G46T | 0.789
78 | C42A G46A | 0.821
79 | G38T T49C | 0.204
80 | C26A T32C | 0.545
81 | A24C A39G | 0.774
82 | T32G T45G | 0.0918
83 | T29C T49A | 0.62
84 | A27C T35A | 0.835
85 | A37C T49C | 0.737
86 | A37C T49A | 0.778
87 | A48C G50C | 0.17
88 | A36T C40T | 0.83
89 | C28A G31C | 0.831
90 | A36G A37T | 0.872
91 | G55A A56C | 0.729
92 | T30A C33G | 0.84
93 | A24G C40T | 0.84
94 | G46T G47T | 0.0382
95 | G31T C33G | 0.808
96 | C26G A36T | 0.773

Row | Variant | fraction ligated
97 | C33T C42A | 0.842
98 | T23A A57G | 0.818
99 | T29C T30C | 0.782
100 | T29C T30G | 0.805
101 | A37T G46A | 0.807
102 | G31C T45C | 0.0406
103 | A39C A48G | 0.776
104 | T29G T45C | 0.677
105 | T23C T30A | 0.802
106 | C28A A48C | 0.477
107 | C26A C28A | 0.64
108 | C28T G31T | 0.826
109 | A39C T43C | 0.815
110 | T25C T29G | 0.783
111 | G31C A48G | 0.389
112 | G47C A57T | 0.0788
113 | T25G T35A | 0.787
114 | A36C G47C | 0.224
115 | T23A G46C | 0.731
116 | A27T | 0.8
117 | T23C C33G | 0.819
118 | T30C A39C | 0.765
119 | T30C A39T | 0.764
120 | G46C T49C | 0.0853

Row | Variant | fraction ligated
121 | C26G T30A | 0.8
122 | T32A A39G | 0.832
123 | C26T T49C | 0.122
124 | T30A G46C | 0.795
125 | T29C G46T | 0.779
126 | C26T A39G | 0.819
127 | T43C G55T | 0.817
128 | G34A G50C | 0.43
129 | G38T C40A | 0.836
130 | A24C G38A | 0.508
131 | A41C A56G | 0.561
132 | T43C A57T | 0.79
133 | T43G A57C | 0.809
134 | T43G A57G | 0.803
135 | T23C T35G | 0.83
136 | T23C T35A | 0.845
137 | A27T G38A | 0.811
138 | T30G C42G | 0.834
139 | C26A A37G | 0.785
140 | A41C G55T | 0.751
141 | T49C G50A | 0.216
142 | T29G A37G | 0.832
143 | T29A A57C | 0.818
144 | T23A T45A | 0.373

Row | Variant | fraction ligated
145 | G34C A37T | 0.839
146 | T32A G46C | 0.778
147 | C28T G47A | 0.787
148 | G51C | 0.812
149 | G31A T44C | 0.801
150 | T32A G34T | 0.823
151 | T32A C40G | 0.834
152 | A56C | 0.767
153 | T30G G31T | 0.853
154 | T30G G31C | 0.845
155 | C28A G50C | 0.163
156 | G31C A39T | 0.778
157 | G31C A39G | 0.777
158 | G31C A39C | 0.779
159 | T43A A48C | 0.734
160 | G31A G50C | 0.0295
161 | T35G T49C | 0.727
162 | T35G T49A | 0.748
163 | A24C A57C | 0.368
164 | T25G A57G | 0.703
165 | A37T A39T | 0.831
166 | C33T T43C | 0.822
167 | T32C T45C | 0.217
